Results reported in patent US9549967B2, “Regulation of sodium channels by PLUNC proteins” (The University of North Carolina at Chapel Hill, priority 2009, dated 2017).

B1: SPLUNC1: human SPLUNC1, 256 amino acid secreted PLUNC protein (SEQ ID NO:1); rSPLUNC1 = V5/6His-tagged protein purified from HEK293 media (protein, listed as Homo sapiens)
chain: MFQTGGLIVFYGLLAQTMAQFGGLPVPLDQTLPLNVNPALPLSPTGLAGSLTNALSNGLLSGGLLGILENLPLLDILKPGGGTSGGLLGGLLGKVTSVIPGLNNIIDIKVTDPQLLELGLVQSPDGHRLYVTIPLGIKLQVNTPLVGASLLRLAVKLDITAEILAVRDKQERIHLVLGDCTHSPGSLQISLLDGLGPLPIQGLLDSLTGILNKVLPELVQGNVCPLVNEVLRGLDITLVHDIVNMLIHGLQFVIKV
modifications: V5/6His tag
notes: rSPLUNC1 = V5/6His-tagged protein purified from HEK293 media

Target: T1, ENaC (Homo sapiens, UniProt P37088+P51168+P51170)
T1 construct: endogenous in cells; host or cells: primary human bronchial epithelial cultures
T1 sequence (P37088 1-669): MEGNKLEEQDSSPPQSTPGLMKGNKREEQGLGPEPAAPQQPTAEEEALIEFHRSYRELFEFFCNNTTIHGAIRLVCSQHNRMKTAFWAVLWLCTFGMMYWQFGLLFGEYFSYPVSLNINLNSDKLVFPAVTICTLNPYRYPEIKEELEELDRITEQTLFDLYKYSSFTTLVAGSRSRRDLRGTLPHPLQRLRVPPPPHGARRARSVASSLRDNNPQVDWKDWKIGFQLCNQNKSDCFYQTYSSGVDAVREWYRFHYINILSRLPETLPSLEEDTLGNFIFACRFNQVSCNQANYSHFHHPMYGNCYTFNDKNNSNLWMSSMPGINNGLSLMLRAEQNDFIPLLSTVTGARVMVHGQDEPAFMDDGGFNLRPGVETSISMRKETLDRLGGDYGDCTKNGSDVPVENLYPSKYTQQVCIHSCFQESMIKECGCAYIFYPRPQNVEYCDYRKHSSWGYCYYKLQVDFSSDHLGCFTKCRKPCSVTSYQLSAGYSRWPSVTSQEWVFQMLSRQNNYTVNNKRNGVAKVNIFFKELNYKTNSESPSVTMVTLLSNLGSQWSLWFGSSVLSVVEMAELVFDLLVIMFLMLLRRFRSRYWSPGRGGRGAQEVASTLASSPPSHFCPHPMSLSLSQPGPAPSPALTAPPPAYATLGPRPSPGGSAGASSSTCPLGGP
T1 sequence (P51168 1-640): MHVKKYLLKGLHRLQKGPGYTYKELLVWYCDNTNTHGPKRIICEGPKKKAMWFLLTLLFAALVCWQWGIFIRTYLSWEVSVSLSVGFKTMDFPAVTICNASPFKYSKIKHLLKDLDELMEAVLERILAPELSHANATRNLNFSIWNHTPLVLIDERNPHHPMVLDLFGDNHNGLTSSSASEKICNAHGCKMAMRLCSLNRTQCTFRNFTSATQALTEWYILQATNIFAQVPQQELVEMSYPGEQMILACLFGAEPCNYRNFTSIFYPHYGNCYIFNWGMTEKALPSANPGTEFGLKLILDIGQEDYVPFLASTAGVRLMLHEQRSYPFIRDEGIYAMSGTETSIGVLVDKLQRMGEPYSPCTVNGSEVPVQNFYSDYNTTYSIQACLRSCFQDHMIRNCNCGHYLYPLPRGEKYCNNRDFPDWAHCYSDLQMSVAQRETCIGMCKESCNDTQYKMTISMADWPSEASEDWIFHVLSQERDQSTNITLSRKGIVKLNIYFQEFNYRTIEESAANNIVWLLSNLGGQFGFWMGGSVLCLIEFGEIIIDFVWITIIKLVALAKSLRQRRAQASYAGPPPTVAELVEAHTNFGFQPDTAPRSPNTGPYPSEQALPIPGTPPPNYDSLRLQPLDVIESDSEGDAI
T1 sequence (P51170 1-649): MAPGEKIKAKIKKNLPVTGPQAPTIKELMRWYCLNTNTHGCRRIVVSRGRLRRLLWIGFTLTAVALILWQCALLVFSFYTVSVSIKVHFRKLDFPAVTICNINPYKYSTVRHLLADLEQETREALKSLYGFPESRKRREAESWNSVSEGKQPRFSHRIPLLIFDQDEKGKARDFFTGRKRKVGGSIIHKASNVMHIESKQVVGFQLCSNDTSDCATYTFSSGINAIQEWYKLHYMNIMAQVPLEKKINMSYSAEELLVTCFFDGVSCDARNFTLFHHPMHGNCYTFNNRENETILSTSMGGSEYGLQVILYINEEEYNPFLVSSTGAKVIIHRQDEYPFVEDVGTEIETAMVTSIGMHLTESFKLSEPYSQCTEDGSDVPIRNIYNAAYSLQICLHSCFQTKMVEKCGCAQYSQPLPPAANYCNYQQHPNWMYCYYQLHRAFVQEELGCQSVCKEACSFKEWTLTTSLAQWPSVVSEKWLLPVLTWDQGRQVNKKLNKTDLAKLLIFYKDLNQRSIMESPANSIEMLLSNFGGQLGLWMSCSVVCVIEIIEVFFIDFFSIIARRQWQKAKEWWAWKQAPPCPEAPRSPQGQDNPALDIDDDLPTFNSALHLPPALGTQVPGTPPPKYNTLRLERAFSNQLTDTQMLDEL
Assay: Transepithelial voltage under thin film conditions in human bronchial epithelial cultures (microelectrode)
Assay type: cell-based
Text: Tissue procurement and cell culture: Cells were harvested by enzymatic digestion from human bronchial tissue as previously described under a protocol approved by the UNC School of Medicine IRB (Tarran et al., J. Gen. Physiol. 127:591 (2006)). Human excess donor lungs and excised recipient lungs were obtained at the time of lung transplantation from portions of main stem or […] bronchi and cells were harvested by enzymatic digestion. All preparations were maintained at an air-liquid interface in a modified bronchial epithelial medium and used 2-5 weeks after seeding on 12 mm T-Clear inserts (Corning Costar) coated with human placental type VI collagen (Sigma). Phosphate buffered saline (PBS) was used for washing human bronchial epithelial culture mucosal surfaces.
Microelectrode studies. A single-barreled potential difference-sensing electrode was placed in the airway surface liquid by micromanipulator and used in conjunction with a macroelectrode in the serosal solution to measure transepithelial voltage using a voltmeter (World Precision Instruments). […] Transepithelial resistance was routinely measured using the EVOM system (WPI) as previously described (Tarran et al., J. Gen. Physiol. 127:591 (2006)).

Row | Molecule | transepithelial voltage after mucosal trypsin (SPLUNC1-exposed group, trypsin for 30 min after 1 h rSPLUNC1 exposure) | transepithelial voltage after mucosal trypsin (control cultures, trypsin for 30 min) | regulation of the transepithelial voltage (SPLUNC1 knockdown cultures, 50 ng/ml rSPLUNC1 added to airway surface liquid) | transepithelial voltage (cultures not pre-washed, airway surface liquid accumulated for 24 h) | onset of inhibition (human bronchial epithelial cultures, FIG. 2C, 2D) | rate of inhibition of the transepithelial voltage (rSPLUNC1 vs aprotinin addition, effects not additive) | transepithelial voltage, addition to amiloride-treated cultures (same amiloride-treated cultures, n=12) | transepithelial voltage (washed cultures, 20 μl Ringer containing 50 ng/ml rSPLUNC1)
1 | trypsin [reference compound] | significantly raised the transepithelial voltage | without effect | – | – | – | – | – | –
2 | B1 | – | – | restored | without further effect | 30 to 60 min | identical rates | without further effect | significantly reduced the transepithelial voltage
